Results reported in US20240352145A1, “EFFICACY OF ANTI-TROP-2-SN-38 ANTIBODY DRUG CONJUGATES FOR THERAPY OF TUMORS RELAPSED/REFRACTORY TO CHECKPOINT INHIBITORS” (Immunomedics, Inc., priority 2016, published 2024).
Like-named read-outs stand apart in the source and are kept apart here.

Tests used:
[1] = tested on: HCC1806 (Trop-2+); assay: dsDNA breaks, phospho-H2AX flow cytometry, HCC1806; format: cell-based, human; details: untreated baseline 168
Procedure: In vitro specificity testing by flow cytometry with rH2AX-stained cells—For drug activity testing, HCC1806 and HCC1395 TNBC cell lines cells were seeded in 6-well plates at 5×10^5 cells/well and held at 37° C. overnight. […] The signal intensity of rH2AX was measured by flow cytometry using a BD FACSCalibur (BD Biosciences, San Jose, CA).
The cells were then washed to remove unbound conjugate, and then incubated overnight at 37° C.

[2] = Tolerability in Swiss-Webster mice; format: in vivo, mouse
[3] = tested on: Capan-1 tumors; assay: Capan-1 xenograft therapy; format: in vivo, mouse; details: 0.2 mg/kg SN-38 twice weekly x 4 weeks
Procedure: NCr female athymic nude (nu/nu) mice, 4 to 8 weeks old, and male Swiss-Webster mice, 10 weeks old, were purchased from Taconic Farms. Tolerability studies were performed in Cynomolgus monkeys (Macaca fascicularis; 2.5-4 kg male and female) by SNBL USA, Ltd. Animals were implanted subcutaneously with different human cancer cell lines. Tumor volume (TV) was determined by measurements in 2 dimensions using calipers, with volumes defined as: L×w^2/2, where L is the longest dimension of the tumor and w is the shortest. […] This dosing frequency reflected a consideration of the conjugate's serum half-life […], to allow a more continuous exposure to the ADC.
Statistics—Growth curves are shown as percent change in initial TV over time. Statistical analysis of tumor growth was based on area under the curve (AUC). Profiles of individual tumor growth were obtained through linear-curve modeling. An f-test was employed to determine equality of variance between groups before statistical analysis of growth curves. A 2-tailed t-test was used to assess statistical significance between the various treatment groups and controls, except for the saline control, where a 1-tailed t-test was used (significance at P≤0.05). Statistical comparisons of AUC were performed only up to the time that the first animal within a group was euthanized due to progression.

[4] = tested on: diverse metastatic cancers
Procedure: To optimize cumulative treatment with minimal delays, phase II is focusing on 8 and 10 mg/kg (n=30 and 14, respectively).
Two ELISA methods were used to measure the clearance of the IgG (capture with anti-hRS7 idiotype antibody) and the intact conjugate (capture with anti-SN-38 IgG/probe with anti-hRS7 idiotype antibody). SN-38 was measured by HPLC.

[5] = mouse, in vivo
[6] = tested on: NCI-N87; assay: Cytotoxicity (MTS), Example 6, NCI-N87; format: cell-based, human; details: NCI-N87, 96 h
Procedure: One day prior to adding the ADCs, cells were harvested from tissue culture and plated into 96-well plates. […] Plates were incubated at 37° C. for 96 h. […] Growth inhibition was measured as a percent of growth relative to untreated cells using Microsoft Excel and Prism software (non-linear regression to generate sigmoidal dose response curves which yield IC50-values.

[7] = mouse, in vivo; remark: listed apart in the source
Procedure: One group was injected intravenously with 20 μCi (250-μg protein) of ^111In-sacituzumab govitecan, whereas another group received 20 μCi (250-μg protein) of ^111In-hRS7 IgG. At various timepoints mice (5 per timepoint) were anesthetized, bled via intracardiac puncture, and then euthanized. Tumors and various tissues were removed, weighed, and counted by γ scintillation to determine the percentage injected dose per gram tissue (% ID/g). […] Pharmacokinetic analysis on blood clearance was performed using WinNonLin software (Parsight Corp.).

[8] = tested on: metastatic SCLC; assay: Phase I/II, metastatic SCLC cohort; format: in vivo, human
[9] = Cardillo et al., 2011; cited from earlier work
[10] = tested on: BXPC3 model of human pancreatic cancer; details: mouse, in vivo, sc
[11] = esophageal cancer, 4 assessable patients

Substance: IMMU-132
- Median fluorescence intensity, anti-rH2AX-AF488 [1]: 546
- hematopoietic toxicity ([2]; 2 doses of 4, 8, 12 mg SN-38/kg): No hematopoietic toxicity occurred
- tolerability, weight loss ([2]; 2 doses over 3 days, each of 4, 8, and 12 mg SN-38/kg): minimal transient weight loss
- aspartate transaminase (AST) ([2]; mouse, in vivo): > 298 U/L
- liver histology ([2]; mouse, in vivo): did not show histologic evidence of tissue damage
- mice with slightly elevated glucose ([2]; mouse, in vivo): 5 of 7
- MTD, cumulative dose over 1 week ([2]; normal mice, no acute toxicity): > 24 mg/kg SN-38
- tumor growth vs untreated and hA20-CL2A-SN-38 [3]: significantly inhibited tumor growth
- tumor-free mice at end of study ([3]; day 140): 50%
- dose-limiting toxicity ([4]; 8, then 12 and 18 mg/kg, days 1 and 8 of 21-day cycles): dose-limiting neutropenia
- median TTP in PDC patients ([4]; 8 wks for preceding last therapy): 11.9 wks
- stable disease, PDC ([4]; 13 CT-assessable PDC patients): 62%
- patients with long-term stable disease ([4]; 24 assessable patients, Phase I study): Over 80%
- partial response (PR) ([4]; 48 assessable patients (excluding PDC), RECIST/CT): 15%
- maximum reduction ([4]; CRC case, after 10 months of treatment): 65%
- CEA after treatment ([4]; CRC case, from 781 ng/mL): 26.5 ng/mL
- PD, number of patients ([4]; CRC, 18 assessable patients): 6
- PR, number of patients ([4]; CRC, 18 assessable patients): 1
- total response [PR+SD] ([4]; CRC, 18 assessable patients): 67%
- PD, number of patients ([4]; NSCLC, 5 assessable patients): 1
- PR, number of patients ([4]; NSCLC, 5 assessable patients): 1
- total response [PR+SD] ([4]; NSCLC, 5 assessable patients): 80%
- PD, number of patients ([4]; SCLC, 4 assessable patients): 2
- PR, number of patients ([4]; SCLC, 4 assessable patients): 2
- total response [PR+SD] ([4]; SCLC, 4 assessable patients): 50%
- PD, number of patients ([4]; TNBC, 8 assessable patients): 2
- PR, number of patients ([4]; TNBC, 8 assessable patients): 2
- total response [PR+SD] ([4]; TNBC, 8 assessable patients): 75%
- PD, number of patients ([4]; all 48 assessable patients): 14
- PR, number of patients ([4]; all 48 assessable patients): 7
- total response [PR+SD] ([4]; all 48 assessable patients): 79%
- total response [PR+SD] ([4]; all 48 assessable patients, listed as hRS7-SN-38): 71%
- PD, number of patients [4, 11]: 1
- PR, number of patients [4, 11]: 1
- total response [PR+SD] [4, 11]: 75%
- time to clearance of conjugate from serum ([4]; human, in vivo): ≤ 3 days
- Abdominal pain, Grade 3, number of patients ([4]; in vivo): 0
- Abdominal pain, Grade 4, number of patients ([4]; in vivo): 0
- Abdominal pain, TOTAL ([4]; in vivo): 11%
- Alopecia, TOTAL ([4]; in vivo): 40%
- Anemia, Grade 3 ([4]; in vivo): (4%)
- Anemia, Grade 3, number of patients ([4]; in vivo): 2
- Anemia, Grade 4, number of patients ([4]; in vivo): 0
- Anemia, TOTAL ([4]; in vivo): 13%
- Deep vein thrombosis, Grade 3 ([4]; in vivo): (2%)
- Deep vein thrombosis, Grade 3, number of patients ([4]; in vivo): 1
- Deep vein thrombosis, Grade 4, number of patients ([4]; in vivo): 0
- Deep vein thrombosis, TOTAL ([4]; in vivo): 2%
- Diarrhea, Grade 3 ([4]; in vivo): (9%)
- Diarrhea, Grade 3, number of patients ([4]; in vivo): 4
- Diarrhea, Grade 4, number of patients ([4]; in vivo): 0
- Diarrhea, TOTAL ([4]; in vivo): 47%
- Dysgeusia, Grade 3, number of patients ([4]; in vivo): 0
- Dysgeusia, Grade 4, number of patients ([4]; in vivo): 0
- Dysgeusia, TOTAL ([4]; in vivo): 15%
- Fatigue, Grade 3 ([4]; in vivo): (9%)
- Fatigue, Grade 3, number of patients ([4]; in vivo): 4
- Fatigue, Grade 4, number of patients ([4]; in vivo): 0
- Fatigue, TOTAL ([4]; in vivo): 55%
- Hypokalemia, Grade 3 ([4]; in vivo): (2%)
- Hypokalemia, Grade 3, number of patients ([4]; in vivo): 1
- Hypokalemia, Grade 4, number of patients ([4]; in vivo): 0
- Hypokalemia, TOTAL ([4]; in vivo): 11%
- Nausea, Grade 3, number of patients ([4]; in vivo): 0
- Nausea, Grade 4, number of patients ([4]; in vivo): 0
- Nausea, TOTAL ([4]; in vivo): 53%
- Neutropenia, Grade 3 ([4]; in vivo): (24%)
- Neutropenia, Grade 3, number of patients ([4]; in vivo): 11
- Neutropenia, Grade 4, number of patients (%) ([4]; in vivo): 2 (4%)
- Neutropenia, TOTAL ([4]; in vivo): 43%
- Pyrexia, Grade 3, number of patients ([4]; in vivo): 0
- Pyrexia, Grade 4, number of patients ([4]; in vivo): 0
- Pyrexia, TOTAL ([4]; in vivo): 13%
- SN-38 in the serum bound to the IgG ([4]; in vivo): > 95%
- Vomiting, Grade 3 ([4]; in vivo): (2%)
- Vomiting, Grade 3, number of patients ([4]; in vivo): 1
- Vomiting, Grade 4, number of patients ([4]; in vivo): 0
- Vomiting, TOTAL ([4]; in vivo): 32%
- WBC Decrease, Grade 3 ([4]; in vivo): (2%)
- WBC Decrease, Grade 3, number of patients ([4]; in vivo): 1
- WBC Decrease, Grade 4, number of patients ([4]; in vivo): 0
- WBC Decrease, TOTAL ([4]; in vivo): 6%
- anti-hRS7 or anti-SN-38 antibodies ([4]; in vivo): No anti-hRS7 or anti-SN-38 antibodies were detected
- anti-hRS7 or anti-SN-38 antibody response ([4]; in vivo): no anti-hRS7 or anti-SN-38 antibody response has been detected
- clearance of intact conjugate vs IgG ([4]; in vivo): cleared more quickly than the IgG
- diarrhea ≥G3 ([4]; in vivo): 9%
- fatigue ≥G3 ([4]; in vivo): 9%
- incidence of Grade 3 or higher, all other adverse events ([4]; in vivo): less than 10%
- median time to progression (TTP), PDC ([4]; in vivo): 12.7 wks
- nausea ≥G3 ([4]; in vivo): 0%
- neutropenia Grade 4 ([4]; in vivo): 4%
- neutropenia ≥Grade 3 ([4]; in vivo): 28%
- vomiting ≥G3 ([4]; in vivo): 2%
- reduction in target lesions, first CT ([4]; person, CRC, 8 mg/kg): 37%
- primary target lesion size at first CT ([4]; person, NSCLC, 5.6 cm at start, after 6th dose): 3.2 cm
- reduction in target lesions ([4]; person, SCLC, 12 mg/kg reduced to 6.8 mg/kg, after two months): 38%
- TTP ([4]; remaining 48 patients): ≥ 12.6 wks
- clearance vs unconjugated IgG [5]: no significant difference in the clearance
- IC50 [6]: 3.6 nM
- amount in tumor vs hRS7 IgG [7]: similar
- median OS ([8]; 8 mg/kg): 8.1 months
- median PFS ([8]; 8 mg/kg): 2.0 months
- median PFS ([8]; 10 mg/kg): 3.6 months
- median time to progression ([8]; in vivo): 4.9 months
- very well tolerated human equivalent dose [9]: ~40 mg/kg
- therapeutic efficacy [10]: better therapeutic efficacy than control treatments
